Assay [1] deals with T1, SID2p peptide (APOL1 G332-L392, WT) (human).
T1 peptide: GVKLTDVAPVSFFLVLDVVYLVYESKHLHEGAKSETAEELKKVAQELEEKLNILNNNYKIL
Briefly: SPR. Background: SPR reads the build-up and loss of mass on a sensor chip optically.

Assay [2] addresses recombinant NCS-1 (not myristoylated) (UniProt P62166 1-190, biotin (EZ-Link NHS-PEG4-biotin) where bound to the streptavidin sensor). Briefly: BLI. (In general: Biolayer interferometry detects binding as a change in optical thickness at a sensor tip.)

For two molecules, binding result and Kd results are on record in publication PMC7090385 (Cell Reports, 2020).

In general, Kd refers to a measure of binding affinity in units of concentration.

recombinant NCS-1 (not myristoylated), sequence (P62166 whole entry): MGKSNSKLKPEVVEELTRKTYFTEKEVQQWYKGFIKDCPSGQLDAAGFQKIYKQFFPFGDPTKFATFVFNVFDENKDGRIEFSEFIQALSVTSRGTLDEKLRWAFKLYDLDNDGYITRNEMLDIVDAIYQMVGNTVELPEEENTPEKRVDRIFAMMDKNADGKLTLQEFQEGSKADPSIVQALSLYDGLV

B1: LZ1p peptide (APOL1 L88-K125) (peptide)
peptide: LTDNEAWNGFVAAAELPRNEADELRKALDNLARQMIMK
For the molecule B1, the binding result in assay [1] is “binds”.

B2: recombinant APOL3 (natural protein)
chain: MDSEKKRFTEEATKYFRERVSPVHLQILLTNNEAWKRFVTAAELPRDEADALYEALKKLRTYAAIEDEYVQQKDEQFREWFLKEFPQVKRKIQESIEKLRALANGIEEVHRGCTISNVVSSSTGAASGIMSLAGLVLAPFTAGTSLALTAAGVGLGAASAVTGITTSIVEHSYTSSAEAEASRLTATSIDRLKVFKEVMRDITPNLLSLLNNYYEATQTIGSEIRAIRQARARARLPVTTWRISAGSGGQAERTIAGTTRAVSRGARILSATTSGIFLALDVVNLVYESKHLHEGAKSASAEELRRQAQELEENLMELTQIYQRLNPCHTH
modifications: biotin (EZ-Link NHS-PEG4-biotin), only where APOL3 was the bound partner (Figure 5A)
As to B2, the Kd in assay [2] came out at 0.0365 ± 0.0026 µM.
